{"source": "patent US20110044995A1", "experiment_in_all_cases": "cell-based or functional assay", "key": {"[1]": {"target": "envelope of standard panel pseudotyped virus SVPB11 (HIV-1 subtype B)"}, "[2]": {"target": "envelope of HIV-1 strain IIIB (HIV-1 strain IIIB)"}, "[3]": {"target": "envelope of standard panel pseudotyped virus SVPB12 (HIV-1 subtype B)"}, "[4]": {"target": "envelope of standard panel pseudotyped virus SVPB5 (HIV-1 subtype B)"}, "[5]": {"target": "envelope of HIV-2 strain EHO (HIV-2 strain EHO)"}, "[6]": {"target": "envelope of HIV-1 strain JRFLGPER"}, "[7]": {"target": "envelope of standard panel pseudotyped virus SVPB14 (HIV-1 subtype B)"}, "[8]": {"target": "envelope of standard panel pseudotyped virus SVPB15 (HIV-1 subtype B)"}, "[9]": {"target": "envelope of HIV-1 strain YU2 (HIV-1 strain YU2) (UniProt P35961)", "sequence (P35961 32-843)": "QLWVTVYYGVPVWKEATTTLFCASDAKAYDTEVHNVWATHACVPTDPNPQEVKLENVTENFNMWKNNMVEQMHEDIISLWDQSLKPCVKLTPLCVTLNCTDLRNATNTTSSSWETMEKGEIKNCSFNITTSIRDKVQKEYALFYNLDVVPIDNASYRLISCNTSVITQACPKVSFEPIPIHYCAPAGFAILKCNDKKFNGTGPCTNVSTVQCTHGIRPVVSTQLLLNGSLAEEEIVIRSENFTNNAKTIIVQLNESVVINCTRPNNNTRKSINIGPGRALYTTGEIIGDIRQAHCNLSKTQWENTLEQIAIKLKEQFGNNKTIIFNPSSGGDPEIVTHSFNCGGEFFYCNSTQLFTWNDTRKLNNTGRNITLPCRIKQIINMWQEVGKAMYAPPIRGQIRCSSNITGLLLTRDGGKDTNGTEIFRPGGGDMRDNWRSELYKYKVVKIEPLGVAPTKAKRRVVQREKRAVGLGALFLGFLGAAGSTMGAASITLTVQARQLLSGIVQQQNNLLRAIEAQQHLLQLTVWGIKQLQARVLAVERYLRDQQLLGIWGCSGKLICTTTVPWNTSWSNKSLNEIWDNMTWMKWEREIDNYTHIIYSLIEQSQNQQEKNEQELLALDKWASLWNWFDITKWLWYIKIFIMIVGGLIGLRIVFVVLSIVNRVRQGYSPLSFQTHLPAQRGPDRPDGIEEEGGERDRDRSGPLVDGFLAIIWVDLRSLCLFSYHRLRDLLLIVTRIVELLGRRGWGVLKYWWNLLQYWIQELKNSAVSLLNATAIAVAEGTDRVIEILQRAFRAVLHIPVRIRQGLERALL"}, "[10]": {"target": "envelope of standard panel pseudotyped virus SVPB18 (HIV-1 subtype B)"}, "[11]": {"target": "envelope of standard panel pseudotyped virus SVPB16 (HIV-1 subtype B)"}, "[12]": {"target": "envelope of HIV-1 strain JR-FL (JRFLwt), on virus (HIV-1 strain JR-FL)"}, "[13]": {"target": "envelope of standard panel pseudotyped virus SVPB8 (HIV-1 subtype B)"}, "[14]": {"target": "envelope of HIV-2 strain ROD (HIV-2 strain ROD) (UniProt P04577)", "sequence (P04577 20-858)": "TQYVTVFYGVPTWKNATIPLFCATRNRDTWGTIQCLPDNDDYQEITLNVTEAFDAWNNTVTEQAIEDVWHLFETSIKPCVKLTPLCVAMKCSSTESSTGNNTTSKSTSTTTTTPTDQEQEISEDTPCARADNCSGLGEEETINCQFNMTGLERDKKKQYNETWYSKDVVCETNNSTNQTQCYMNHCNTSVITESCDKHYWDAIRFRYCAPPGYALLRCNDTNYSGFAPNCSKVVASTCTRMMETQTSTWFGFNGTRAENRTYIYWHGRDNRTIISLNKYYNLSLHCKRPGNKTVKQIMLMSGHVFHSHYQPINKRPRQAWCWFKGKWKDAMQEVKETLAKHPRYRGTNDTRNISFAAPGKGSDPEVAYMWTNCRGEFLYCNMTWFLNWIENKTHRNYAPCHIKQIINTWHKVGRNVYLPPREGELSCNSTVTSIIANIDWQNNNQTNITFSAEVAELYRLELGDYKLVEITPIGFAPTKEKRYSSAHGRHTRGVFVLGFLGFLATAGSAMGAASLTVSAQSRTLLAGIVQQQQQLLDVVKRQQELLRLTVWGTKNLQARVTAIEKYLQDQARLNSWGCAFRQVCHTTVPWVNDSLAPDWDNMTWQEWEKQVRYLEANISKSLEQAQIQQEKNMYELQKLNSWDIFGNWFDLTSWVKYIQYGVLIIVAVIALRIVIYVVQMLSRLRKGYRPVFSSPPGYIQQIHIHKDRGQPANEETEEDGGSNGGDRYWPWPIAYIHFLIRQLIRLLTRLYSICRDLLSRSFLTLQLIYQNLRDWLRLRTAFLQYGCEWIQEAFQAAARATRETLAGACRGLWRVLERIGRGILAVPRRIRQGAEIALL"}, "[15]": {"target": "envelope of HIV-1 strain SF162 (HIV-1 strain SF162) (UniProt P19550)"}, "[16]": {"target": "envelope of HIV-1 strain BaL (HIV-1 strain BaL)"}, "[17]": {"target": "envelope of standard panel pseudotyped virus SVPB13 (HIV-1 subtype B)"}, "[18]": {"target": "envelope of HIV-1 strain 89.6 (HIV-1 strain 89.6) (UniProt Q73372)"}, "[19]": {"target": "envelope of standard panel pseudotyped virus SVPB17 (HIV-1 subtype B)"}, "[20]": {"target": "envelope of standard panel pseudotyped virus SVPB6 (HIV-1 subtype B)"}}, "data": [{"substance": "KD-247 (antibody)", "values": [{"measurement": "IC50 in TZM-bl cells", "setting": "[1]", "value": "> 50", "unit": "µg/mL"}, {"measurement": "IC50, neutralizing activity (MTT assay)", "setting": "[2]", "value": "> 50", "unit": "µg/mL"}, {"measurement": "IC50 in TZM-bl cells", "setting": "[3]", "value": "> 50", "unit": "µg/mL"}, {"measurement": "IC50 in TZM-bl cells", "setting": "[4]", "value": 1.8, "unit": "µg/mL"}, {"measurement": "IC50, neutralizing activity (MTT assay)", "setting": "[5]", "value": "> 50", "unit": "µg/mL"}, {"measurement": "IC50, neutralizing activity (MTT assay)", "setting": "[6]", "value": "> 50", "unit": "µg/mL"}, {"measurement": "IC50 in TZM-bl cells", "setting": "[7]", "value": "> 50", "unit": "µg/mL"}, {"measurement": "IC50 in TZM-bl cells", "setting": "[8]", "value": "> 50", "unit": "µg/mL"}, {"measurement": "IC50, neutralizing activity (MTT assay)", "setting": "[9]", "value": "> 50", "unit": "µg/mL"}, {"measurement": "IC50 in TZM-bl cells", "setting": "[10]", "value": 28, "unit": "µg/mL"}, {"measurement": "IC50 in TZM-bl cells", "setting": "[11]", "value": "> 50", "unit": "µg/mL"}, {"measurement": "IC50, neutralizing activity (MTT assay)", "setting": "[12]", "value": 12, "unit": "µg/mL"}, {"measurement": "IC50 in TZM-bl cells", "setting": "[13]", "value": "> 50", "unit": "µg/mL"}, {"measurement": "IC50, neutralizing activity (MTT assay)", "setting": "[14]", "value": "> 50", "unit": "µg/mL"}, {"measurement": "IC50, neutralizing activity (MTT assay)", "setting": "[15]", "value": 0.21, "unit": "µg/mL"}, {"measurement": "IC50, neutralizing activity (MTT assay)", "setting": "[16]", "value": 3.8, "unit": "µg/mL"}, {"measurement": "IC50 in TZM-bl cells", "setting": "[17]", "value": "> 50", "unit": "µg/mL"}, {"measurement": "IC50, neutralizing activity (MTT assay)", "setting": "[18]", "value": 4.2, "unit": "µg/mL"}, {"measurement": "IC50 in TZM-bl cells", "setting": "[19]", "value": 17, "unit": "µg/mL"}, {"measurement": "IC50 in TZM-bl cells", "setting": "[20]", "value": "> 50", "unit": "µg/mL"}]}]}
